Results published in article PMC7749166 (Communications Biology, 2020).

Target: T1, C5aR^D282A (Homo sapiens, UniProt P21730, D282A)
T1 construct: Flag (N); His8 (C); made in house; host or cells: HEK-293S cells (BacMam baculovirus)
T1 sequence (P21730 1-350 D282A): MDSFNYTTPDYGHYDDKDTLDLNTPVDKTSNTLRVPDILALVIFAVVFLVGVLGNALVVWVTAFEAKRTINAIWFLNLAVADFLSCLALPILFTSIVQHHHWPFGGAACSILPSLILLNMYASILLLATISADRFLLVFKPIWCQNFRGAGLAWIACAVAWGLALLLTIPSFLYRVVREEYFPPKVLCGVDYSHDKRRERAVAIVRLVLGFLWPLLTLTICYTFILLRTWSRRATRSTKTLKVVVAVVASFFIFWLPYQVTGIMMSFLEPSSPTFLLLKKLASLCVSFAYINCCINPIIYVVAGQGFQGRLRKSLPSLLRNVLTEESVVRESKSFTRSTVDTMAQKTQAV
Experiment: 35S-GTPγS binding assay, D282A mutant
Assay type: biochemical
Conditions: increased concentration of C5a, Fig. S7
Protocol: Mutant variants (D282A, D282N, and R175V/Y258V) were generated based on the wtC5aR construct and fully sequenced. Mutant variants were expressed following the same method as for wtC5aR except for some modifications. HEK-293S cells expressing each mutant were pelleted by centrifugation and resuspended in 20 ml buffer containing 20 mM HEPES pH 7.5, 100 mM NaCl, 0.2 μg ml^−1 leupeptin, and 150 μg ml^−1 benzamidine. After 20 min incubation at 25 °C, 20 ml 2X solubilization buffer containing 20 mM HEPES pH 7.5, 100 mM NaCl, 1% dodecyl-maltoside (DDM), 0.2% cholesterol hemisuccinate (CHS), 20% glycerol, 0.2 μg ml^−1 leupeptin, 150 μg ml^−1 benzamidine, and 5 U Salt Active Nuclease (Sigma) was added. Cell membranes were solubilized for 1.5 h at 4 °C. […]
For the ^35S-GTPγS binding assays, the membrane of HEK293S GnTI^− cells expressing wtC5aR (~200 µg ml^−1) or mutant variants was incubated with 200 nM purified Gi protein for 30 min on ice in buffer containing 20 mM HEPES pH 7.5, 100 mM NaCl, 5 mM MgCl2, 3 μg ml^−1 BSA, 0.1 μM TCEP, and 5 μM GDP to get the receptor and Gi complex. […] The radiation of bound ^35S-GTPγS was measured on a Beckman LS6500 scintillation counter to determine the binding of ^35S-GTPγS to Gi induced by C5aR activation. […]

B1: C5a: C5a, a large 74-amino acid glycoprotein; endogenous ligand of C5aR (His6-tag at N-terminal end for AFM tips) (protein)
chain: TLQKKIEEIAAKYKHSVVKKCCYDGACVNNDETCEQRAARISLGPRCIKAFTECCVVASQLRANISHKDMQLGR
modifications: left off: His6, N-terminal, kept
  Gi-protein activation vs C5aR^WT: strong reduction in the Gi-protein activation
